The text below walks through data of patent US20220289855A1 (University of California, published 2022).

For the assay, the target named is T1, integrin α4β1 (mouse, UniProt Q00651 41-1039; P09055 21-798).
T1 construct: whole, on cells
Put plainly: flow cytometry, soluble ligand on mouse Tregs. On the procedure:
Splenic lymphocytes were isolated from Foxp3^GFP mice and were washed and resuspended in HBSS containing 0.1% BSA and 1 mM Ca²⁺/Mg²⁺, prior to incubation with integrin ligands for […] at 37° C. in the presence of IL-2 (10 ug/ml), rat-PC61 (5 ug/ml, Bioxcell), rat-rIgG (5 ug/ml, Bioxcell), murine-PC61 (5 ug/ml) and murine-IgG (5 ug/ml, Bioxcell). Cells were then incubated with AlexFluor647-conjugated anti-human IgG (1:200) for […] at 4° C. Then cells were washed twice before flow cytometry analysis using an Accuri C6 Plus (BD Biosciences). Data were analyzed using FlowJo software.
(In general: A flow cytometer gives signals particle by particle.)

T1 sequence (Q00651 41-1039, chain 1 of 2): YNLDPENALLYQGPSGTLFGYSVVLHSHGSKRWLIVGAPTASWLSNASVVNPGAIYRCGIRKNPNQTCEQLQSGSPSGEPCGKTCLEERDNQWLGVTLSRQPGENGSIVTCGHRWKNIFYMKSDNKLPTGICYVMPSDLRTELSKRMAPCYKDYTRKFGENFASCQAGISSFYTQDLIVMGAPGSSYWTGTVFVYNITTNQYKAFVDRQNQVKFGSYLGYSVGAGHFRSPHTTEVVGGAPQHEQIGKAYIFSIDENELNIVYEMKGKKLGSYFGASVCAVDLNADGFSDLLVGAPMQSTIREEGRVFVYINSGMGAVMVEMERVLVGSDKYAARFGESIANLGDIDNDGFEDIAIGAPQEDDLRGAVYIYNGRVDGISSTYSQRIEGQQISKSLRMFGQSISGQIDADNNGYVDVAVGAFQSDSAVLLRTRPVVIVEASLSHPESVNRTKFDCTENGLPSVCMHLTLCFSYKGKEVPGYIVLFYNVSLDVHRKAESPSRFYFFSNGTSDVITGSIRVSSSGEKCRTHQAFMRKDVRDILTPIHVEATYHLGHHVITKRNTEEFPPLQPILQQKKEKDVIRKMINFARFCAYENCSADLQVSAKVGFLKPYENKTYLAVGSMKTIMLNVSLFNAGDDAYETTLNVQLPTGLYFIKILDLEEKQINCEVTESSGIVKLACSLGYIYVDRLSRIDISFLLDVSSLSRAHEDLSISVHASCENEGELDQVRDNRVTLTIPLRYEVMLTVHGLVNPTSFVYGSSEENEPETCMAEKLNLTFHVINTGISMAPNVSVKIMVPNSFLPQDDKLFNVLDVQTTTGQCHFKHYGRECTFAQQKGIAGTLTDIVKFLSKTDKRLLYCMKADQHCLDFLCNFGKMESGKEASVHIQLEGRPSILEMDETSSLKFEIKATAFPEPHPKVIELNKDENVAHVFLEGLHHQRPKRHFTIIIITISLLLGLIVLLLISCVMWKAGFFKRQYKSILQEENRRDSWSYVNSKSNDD
T1 sequence (P09055 21-798, chain 2 of 2): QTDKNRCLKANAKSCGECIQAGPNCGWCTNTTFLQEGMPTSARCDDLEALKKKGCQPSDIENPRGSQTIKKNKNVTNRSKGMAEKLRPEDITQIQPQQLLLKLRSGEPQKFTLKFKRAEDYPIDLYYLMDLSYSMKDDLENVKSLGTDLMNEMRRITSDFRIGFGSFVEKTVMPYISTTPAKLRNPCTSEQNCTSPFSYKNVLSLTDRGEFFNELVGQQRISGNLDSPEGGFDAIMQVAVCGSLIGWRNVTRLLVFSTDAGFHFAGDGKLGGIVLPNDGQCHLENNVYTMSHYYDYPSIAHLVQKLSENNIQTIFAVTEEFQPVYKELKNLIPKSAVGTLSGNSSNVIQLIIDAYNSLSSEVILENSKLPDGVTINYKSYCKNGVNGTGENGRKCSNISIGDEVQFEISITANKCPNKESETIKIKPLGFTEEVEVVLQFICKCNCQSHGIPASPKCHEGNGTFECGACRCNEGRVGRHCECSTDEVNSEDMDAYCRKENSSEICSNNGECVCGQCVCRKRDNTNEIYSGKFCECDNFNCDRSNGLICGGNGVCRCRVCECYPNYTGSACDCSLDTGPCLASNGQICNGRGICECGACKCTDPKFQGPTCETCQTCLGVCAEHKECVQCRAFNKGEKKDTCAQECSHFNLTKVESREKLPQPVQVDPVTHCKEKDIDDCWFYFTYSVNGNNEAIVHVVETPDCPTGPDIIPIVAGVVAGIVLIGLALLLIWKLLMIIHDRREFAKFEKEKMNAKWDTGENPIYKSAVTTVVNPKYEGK

B1: purified mouse VCAM-Fc (Fc fusion, UniProt P29533 25-698, looked up)
chain: FKIEISPEYKTIAQIGDSMALTCSTTGCESPLFSWRTQIDSPLNAKVRTEGSKSVLTMEPVSFENEHSYLCTATCGSGKLERSIHVDIYSFPKDPEIQFSGPLEVGKPVTVKCLAPDIYPVYRLEIDLFKGDQLMNRQEFSSEEMTKSLETKSLEVTFTPVIEDIGKALVCRAKLHIDQIDSTLKERETVKELQVYISPRNTTISVHPSTRLQEGGAVTMTCSSEGLPAPEIFWGRKLDNEVLQLLSGNATLTLIAMRMEDSGVYVCEGVNLIGRDKAEVELVVQEKPFIVDISPGSQVAAQVGDSVVLTCAAIGCDSPSFSWRTQTDSPLNGVVRNEGAKSTLVLSSVGFEDEHSYLCAVTCLQRTLEKRTQVEVYSFPEDPVIKMSGPLVHGRPVTVNCTVPNVYPFDHLEIELLKGETTLMKKYFLEEMGIKSLETKILETTFIPTIEDTGKSLVCLARLHSGEMESEPKQRQSVQPLYVNVAPKETTIWVSPSPILEEGSPVNLTCSSDGIPAPKILWSRQLNNGELQPLSENTTLTFMSTKRDDSGIYVCEGINEAGISRKSVELIIQVSPKDIQLTVFPSKSVKEGDTVIISCTCGNVPETWIILKKKAKTGDMVLKSVDGSYTIRQAQLQDAGIYECESKTEVGSQLRSLTLDVKGKEHNKDYFSPE
notes: also called VCAM-1; soluble VCAM-1; not shown: Fc part, detected with anti-Human Fc
For the molecule B1, the binding result is recorded as “binds”.
